Reference: PMC5921579

Substrate: O=P(O)(O)O[C@@H]1[C@H](O)[C@H](O)[C@@H](OP(=O)(O)O)[C@H](OP(=O)(O)O)[C@H]1O
Experiment: ADP luciferase assay, nonlinear regression
Format: biochemical, Trypanosoma brucei
Details: 200 µM ATP, 2 mM MgCl2, 20 mM HEPES, 150 mM NaCl, pH 7.5, 37°C

B1: T. brucei IPMK (rIPMK, rTbIPMK) (Trypanosoma brucei brucei TREU927) (protein)
chain: MLNICQNLSSVAKPDLIVVSGHKCNIQRGPQTSIGTPTITKRVTAWEALIYLEMLLAEDEAFAILATFVPPLVALLPPENFASDNWVYVHDPASRPLLKSIFAQLKQMSADTHGYNEVMDTTRWEIILVDVTATFHKPCVLDIKLGYVRHSPHTLPDKVERIHKRQLRRSQPIRFCGAHHQFCRQNNDIGECFELEEFTKDMGYALETEESHRRALRSFFTTASLMTTSNTNETTIIDDRHAMARSRCCRQRVQKLVDFLKGHLGQMLLERIAFVSASLLIVYDATGCCGRNVTVSEGINSMNDMVNVYLIDFSRSGDRRLHFPEEVVGFVQGLEKIIFLLS
With B1 the Km was 61.41 (±15.37) µM, the Vmax was 617 µmol/min/mg and the kcat/Km was 167000 M⁻¹ s⁻¹.
